The target in series [1] is T1, GST-ONAC022 (Oryza sativa (rice), UniProt Q10S65 1-316).
T1 sequence: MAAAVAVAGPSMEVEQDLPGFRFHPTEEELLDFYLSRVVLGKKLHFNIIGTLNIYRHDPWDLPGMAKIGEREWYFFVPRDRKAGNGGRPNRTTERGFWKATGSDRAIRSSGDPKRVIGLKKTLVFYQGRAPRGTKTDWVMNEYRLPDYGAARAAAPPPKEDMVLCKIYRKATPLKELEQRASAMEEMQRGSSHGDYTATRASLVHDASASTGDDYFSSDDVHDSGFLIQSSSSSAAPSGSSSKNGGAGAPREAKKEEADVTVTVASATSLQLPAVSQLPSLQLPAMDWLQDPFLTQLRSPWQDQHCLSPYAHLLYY
Briefly: EMSA; 10 uL with 5x EMSA buffer (Beyotime chemiluminescent EMSA kit), 2 ug protein, 1 uL biotin probe; competitor preincubated 20 min; 8% native PAGE; salt, pH and temperature not stated. The conditions noted are these: protein: recombinant; tags: N-terminal GST (pGEX-6p-1); chain copies: 2; blunt.

Series [2] deals with T1, GST-ONAC022. Briefly: EMSA; self-competition by 200x unlabeled wNACRS attenuates the shift; 10 uL with 5x EMSA buffer (Beyotime chemiluminescent EMSA kit), 2 ug protein, 1 uL biotin probe; competitor preincubated 20 min; 8% native PAGE; salt, pH and temperature not stated. Conditions: protein: recombinant; tags: N-terminal GST (pGEX-6p-1); chain copies: 2; blunt.

B1: mNACRS (dsDNA)
DNA 1: ATCGAAAAAAGAGAAAAGAGAAAATTTT
DNA 2: AAAATTTTCTCTTTTCTCTTTTTTCGAT
For B1, the binding result with GST-ONAC022 [1] is “no binding”.

B2: wNACRS (dsDNA)
DNA 1: ATCGCATGTGGAGCACGGAGCACGTTTT
DNA 2: AAAACGTGCTCCGTGCTCCACATGCGAT
With B2, the binding result in the series with GST-ONAC022 [2] was “binds”.

Source of the values: PMC4722120, “Overexpression of a Stress-Responsive NAC Transcription Factor Gene ONAC022 Improves Drought and Salt Tolerance in Rice”.
